B1: FUT8 (parent)
chain: YAHQPRTADEIPMEPGDIIGVAGN
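Note: lentivirally expressed fusions sorted by FACS into six bins by GFP to DsRed ratio, PSI derived from sequencing read proportions per bin multiplied by bin number.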

Variants of: B1
Assay: protein stability index of a GFP-peptide fusion (GPS, HEK-293T) (PSI 1-6); higher = more stable
Details: c terminus: a fixed tail appended
Variant YAHQPRTADEIPMEPGVIIGVAGN [D17V] has a protein stability index of 2.87. In the case of YAHQPRTADEIPMEPGLIIGVAGN [D17L], the protein stability index is reported as 2.3. With YAHQPRTADEIPMEPGYIIGVAGN [D17Y] the protein stability index was 2.68. In the case of YAHQPRTADEIPMEPGPIIGVAGN [D17P], the protein stability index is reported as 3.14. Work on YAHQPRTADEIPMEPGCIIGVAGN [D17C] yielded a protein stability index of 2.79. In the case of YAHQPRTADEIPMEPGGIIGVAGN [D17G], the protein stability index is reported as 3.38. Work on YAHQPRTADEIPMEPGWIIGVAGN [D17W] yielded a protein stability index of 1.41. With YAHQPRTADEIPMEPGIIIGVAGN [D17I] the protein stability index was 2.57. With YAHQPRTADEIPMEPGSIIGVAGN [D17S] the protein stability index was 3.78. For YAHQPRTADEIPMEPGAIIGVAGN [D17A], the protein stability index was 3.23. In the case of YAHQPRTADEIPMEPGKIIGVAGN [D17K], the protein stability index is reported as 3.25. Variant YAHQPRTADEIPMEPGNIIGVAGN [D17N] has a protein stability index of 3.48. Variant YAHQPRTADEIPMEPGMIIGVAGN [D17M] has a protein stability index of 3.06. Variant YAHQPRTADEIPMEPGQIIGVAGN [D17Q] has a protein stability index of 4.14. Work on YAHQPRTADEIPMEPGTIIGVAGN [D17T] yielded a protein stability index of 3.38. YAHQPRTADEIPMEPGHIIGVAGN [D17H] gave a protein stability index of 3.29. Variant YAHQPRTADEIPMEPGEIIGVAGN [D17E] has a protein stability index of 4.24. YAHQPRTADEIPMEPGFIIGVAGN [D17F] showed a protein stability index of 2.03. In the case of YAHQPRTADEIPMEPGRIIGVAGN [D17R], the protein stability index is reported as 3.45. In the case of YAHQPRTADEIPMETGDIIGVAGN [P15T], the protein stability index is reported as 4.25. YAHQPRTADEIPMEQGDIIGVAGN [P15Q] gave a protein stability index of 4.25. Work on YAHQPRTADEIPMEMGDIIGVAGN [P15M] yielded a protein stability index of 3.68. Work on YAHQPRTADEIPMELGDIIGVAGN [P15L] yielded a protein stability index of 3.2. YAHQPRTADEIPMESGDIIGVAGN [P15S] gave a protein stability index of 3.92. YAHQPRTADEIPMEKGDIIGVAGN [P15K] showed a protein stability index of 4.16. Work on YAHQPRTADEIPMEYGDIIGVAGN [P15Y] yielded a protein stability index of 3.31. In the case of YAHQPRTADEIPMENGDIIGVAGN [P15N], the protein stability index is reported as 4.08. For YAHQPRTADEIPMEIGDIIGVAGN [P15I], the protein stability index was 3.5. For YAHQPRTADEIPMERGDIIGVAGN [P15R], the protein stability index was 4.23. YAHQPRTADEIPMEWGDIIGVAGN [P15W] showed a protein stability index of 2.2. Work on YAHQPRTADEIPMEVGDIIGVAGN [P15V] yielded a protein stability index of 3.58. YAHQPRTADEIPMEPGDIIGNAGN [V21N] showed a protein stability index of 4.28. Variant YAHQPRTADEIPMEPGDIIGAAGN [V21A] has a protein stability index of 4.33. YAHQPRTADEIPMEPGDIIGWAGN [V21W] gave a protein stability index of 3.03. YAHQPRTADEIPMEPGDIIGKAGN [V21K] showed a protein stability index of 3.99. In the case of YAHQPRTADEIPMEPGDIIGSAGN [V21S], the protein stability index is reported as 4.05. Variant YAHQPRTADEIPMEPGDIIGCAGN [V21C] has a protein stability index of 4. Work on YAHQPRTADEIPMEPGDIIGGAGN [V21G] yielded a protein stability index of 4.29. Work on YAHQPRTADEIPMEPGDIIGMAGN [V21M] yielded a protein stability index of 3.68. Work on YAHQPRTADEIPMEPGDIIGRAGN [V21R] yielded a protein stability index of 3.47. YAHQPRTADEIPMEPGDIIGYAGN [V21Y] showed a protein stability index of 3.82. YAHQPRTADEIPMEPGDIIGHAGN [V21H] gave a protein stability index of 4.15. In the case of YAHQPRTADEIPMEPGDIIGPAGN [V21P], the protein stability index is reported as 4.13. YAHQPRTADEIPMEPGDIIGLAGN [V21L] gave a protein stability index of 4.03. In the case of YAHQPRTADEIPMEPGDIIGTAGN [V21T], the protein stability index is reported as 4.69. YAHQPRTADEIPMEPGDIIGEAGN [V21E] gave a protein stability index of 4.62. YAHQPRTADEIPMEPGDIIGFAGN [V21F] showed a protein stability index of 3.8. Variant YAHQPRTADEIPMEPGDIIGIAGN [V21I] has a protein stability index of 3.93. For YAHQPRTADEIPMEPGDIIGQAGN [V21Q], the protein stability index was 4.22. With YAHQPRTADEIPMEPGDIIGDAGN [V21D] the protein stability index was 4.62. Variant YAHQPRTADEIPMEPGDIIGVAIN [G23I] has a protein stability index of 2.87. With YAHQPRTADEIPMEPGDIIGVACN [G23C] the protein stability index was 3.12. Work on YAHQPRTADEIPMEPGDIIGVAKN [G23K] yielded a protein stability index of 4.19. YAHQPRTADEIPMEPGDIIGVAFN [G23F] gave a protein stability index of 2.99. YAHQPRTADEIPMEPGDIIGVATN [G23T] showed a protein stability index of 3.87. YAHQPRTADEIPMEPGDIIGVAVN [G23V] showed a protein stability index of 3.58. With YAHQPRTADEIPMEPGDIIGVAQN [G23Q] the protein stability index was 4.11. Work on YAHQPRTADEIPMEPGDIIGVARN [G23R] yielded a protein stability index of 3.31. YAHQPRTADEIPMEPGDIIGVASN [G23S] gave a protein stability index of 3.77. YAHQPRTADEIPMEPGDIIGVAHN [G23H] showed a protein stability index of 3.99. With YAHQPRTADEIPMEPGDIIGVANN [G23N] the protein stability index was 3.63. In the case of YAHQPRTADEIPMEPGDIIGVAWN [G23W], the protein stability index is reported as 2.67. With YAHQPRTADEIPMEPGDIIGVAAN [G23A] the protein stability index was 3.96. Variant YAHQPRTADEIPMEPGDIIGVAEN [G23E] has a protein stability index of 4.83. For YAHQPRTADEIPMEPGDIIGVALN [G23L], the protein stability index was 3.27. In the case of YAHQPRTADEIPMEPGDIIGVAYN [G23Y], the protein stability index is reported as 3.13. YAHQPRTADEIPMEPGDIIGVAPN [G23P] showed a protein stability index of 3.73. YAHQPRTADEIPMEPGDIIGVADN [G23D] showed a protein stability index of 4.24. For YAHQPRTADEIPMEPGDIIGVAMN [G23M], the protein stability index was 3.7. Variant YAHQPRTADEIPMEPGDIIGVGGN [A22G] has a protein stability index of 4.01. Variant YAHQPRTADEIPMEPGDIIGVMGN [A22M] has a protein stability index of 3.96. For YAHQPRTADEIPMEPGDIIGVEGN [A22E], the protein stability index was 3.92. For YAHQPRTADEIPMEPGDIIGVVGN [A22V], the protein stability index was 3.26. Variant YAHQPRTADEIPMEPGDIIGVNGN [A22N] has a protein stability index of 4.38. YAHQPRTADEIPMEPGDIIGVIGN [A22I] gave a protein stability index of 3.12. With YAHQPRTADEIPMEPGDIIGVFGN [A22F] the protein stability index was 2.85. With YAHQPRTADEIPMEPGDIIGVSGN [A22S] the protein stability index was 3.92. Work on YAHQPRTADEIPMEPGDIIGVRGN [A22R] yielded a protein stability index of 4. YAHQPRTADEIPMEPGDIIGVWGN [A22W] showed a protein stability index of 2.41. With YAHQPRTADEIPMEPGDIIGVQGN [A22Q] the protein stability index was 4.31. In the case of YAHQPRTADEIPMEPGDIIGVPGN [A22P], the protein stability index is reported as 4.06. Work on YAHQPRTADEIPMEPGDIIGVTGN [A22T] yielded a protein stability index of 3.87. YAHQPRTADEIPMEPGDIIGVCGN [A22C] gave a protein stability index of 3.14. Work on YAHQPRTADEIPMEPGDIIGVHGN [A22H] yielded a protein stability index of 3.97. Work on YAHQPRTADEIPMEPGDIIGVYGN [A22Y] yielded a protein stability index of 3.27. YAHQPRTADEIPMEPGDIIGVKGN [A22K] gave a protein stability index of 4.4. With YAHQPRTADEIPMEPGDIIGVDGN [A22D] the protein stability index was 4.19. With YAHQPRTADEIPMEPGDIIGVLGN [A22L] the protein stability index was 3.63. Variant YAHQPRTADEIPMEPGDIIGVAGC [N24C] has a protein stability index of 3.57. With YAHQPRTADEIPMEPGDIIGVAGQ [N24Q] the protein stability index was 4.03. With YAHQPRTADEIPMEPGDIIGVAGR [N24R] the protein stability index was 3.5. In the case of YAHQPRTADEIPMEPGDIIGVAGH [N24H], the protein stability index is reported as 3.39. With YAHQPRTADEIPMEPGDIIGVAGT [N24T] the protein stability index was 4.13. Work on YAHQPRTADEIPMEPGDIIGVAGG [N24G] yielded a protein stability index of 3.43.

Source: the supplement of paper PMC10567573
